Assays:
Assay type in all cases: biochemical
[1] = In vitro GGR reduction of farnesol, products analysed by GC-MS; design: key to Farnesol (C15) reduction / Farnesol (C15)-full reduction: +: activity detected; ++: activity higher than for other GGRs
Method: Validation of enzymatic substrate reduction was determined by incubating all assays in […] buffer containing 30-150 μM enzyme, 200 µM FAD (Sigma-Aldrich), and 65 mM sodium dithionite (Sigma-Aldrich). Standard assays for alcohol reduction were incubated with 100 μM enzyme and 500 μM (E,E)-farnesol (Alfa-Aesar) or (E,E,E)-geranylgeraniol (Sigma-Aldrich); pyrophosphate assays were performed at 100 μM FPP or GGPP (Sigma-Aldrich). Alcohol-based assays were quenched by liquid extraction using a 3:1 (v:v) LC-grade ethyl acetate solution containing 100 μM dodecanol as a GC internal standard (Sigma-Aldrich). The organic layer was extracted and stored at −20° C. until analysis by GC-MS. Pyrophosphate assays were similarly quenched using LC-grade n-butanol (Sigma-Aldrich) 1:1 (v:v) and centrifuged at 15000×g for 2 minutes. The n-butanol layer was dried for 45 minutes at ambient temperature using a Labconco speedvac, reconstituted in 25 µL of a 62:38 (v:v) acetonitrile/50 mM ammonium carbonate solution, and stored at −20° C. until further analysis by LC-MS-TOF [33]. Characterization of enzymatic hydrolysis of isoprenoid pyrophosphate substrates by SaGGR and PfGGR was performed by quenching the enzyme reactions at 0, 2, 5, 10, 20, 40, and 60 minutes of incubation.
(§1) Product identification and quantification of farnesol and hydrofarnesol derivatives were modified from previous detection methods. All GC-MS analyses were determined using an Agilent 6890 gas chromatography instrument coupled to an Agilent 5973 mass selective detector. 1 µL of extracted samples were injected in splitless mode onto an Agilent CycloSil-B column, with helium used as a carrier gas flowing at 1.0 mL/min. Following injection, the oven was held at 50° C. for 30 seconds, then increased to 175° C. at 35° C./min. Farnesol and hydrofarnesols were resolved by increasing the temperature 4° C./min up to 200° C., then increased to 300° C. at a rate of 35° C./min where it was held for 1.5 minutes. Geranylgeraniol and its hydrogenated derivatives were analyzed using the same injection method. After injection, the oven was held at 50° C. for 30 seconds then increased to 235° C. at 35° C./min. Hydrogeranylgeraniols were separated by increasing the oven temperature 4° C./min to 250° C., then ramped to 300° C. at a rate of 35° C./min where it was held for 1.5 minutes.
(§2) The EI-MS detection was initiated after a solvent delay of 5.0 minutes. Detection and classification of hydrofarnesols was performed in scan mode at 9.8 scans/sec ranging from 50-250 m/z in positive ion mode. For geranylgeraniol, the same scan parameters were implemented except for the mass range, which was expanded to 50-300 m/z in positive ion mode. The electron multiplier voltage was set to a gain factor of 1, with the MS ion source and quadrupole set to 230° C. and 150° C., respectively.
(§3) Total ion chromatograms (TIC) were integrated using Agilent Technologies Masshunter software, version 6. Product formation was determined from the TIC area for C15 or C20 alcohol products eluting at each respective retention time. Absolute product concentrations were determined from standard curves (0-200 μM) of either farnesol or geranylgeraniol assuming the TIC area of each reduced product ionizes with an equivalent efficiency to that of the unreduced substrate (FIG. 10). Subsequently, enzyme turnover numbers for isoprenoid reduction were calculated as the total number of nanomoles of prenyl units reduced per milligram of enzyme in 1 hr.

[2] = In vitro GGR reduction of geranylgeranyl pyrophosphate, products detected by LC-MS-TOF; design: key to GGPP (C20) reduction: +: activity detected; ++: activity higher than for other GGRs
Method: (§4) Validation of enzymatic substrate reduction was determined by incubating all assays in triplicate for each respective substrate and putative GGR for 1 hour at 37° C. All assays were performed at pH 7.4 in 100 mM sodium phosphate buffer containing 30-150 μM enzyme, 200 µM FAD (Sigma-Aldrich), and 65 mM sodium dithionite (Sigma-Aldrich). Standard assays for alcohol reduction were incubated with 100 μM enzyme and 500 μM (E,E)-farnesol (Alfa-Aesar) or (E,E,E)-geranylgeraniol (Sigma-Aldrich); pyrophosphate assays were performed at 100 μM FPP or GGPP (Sigma-Aldrich). Alcohol-based assays were quenched by liquid extraction using a 3:1 (v:v) LC-grade ethyl acetate solution containing 100 μM dodecanol as a GC internal standard (Sigma-Aldrich). The organic layer was extracted and stored at −20° C. until analysis by GC-MS. Pyrophosphate assays were similarly quenched using LC-grade n-butanol (Sigma-Aldrich) 1:1 (v:v) and centrifuged at 15000×g for 2 minutes. The n-butanol layer was dried for 45 minutes at ambient temperature using a Labconco speedvac, reconstituted in 25 µL of a 62:38 (v:v) acetonitrile/50 mM ammonium carbonate solution, and stored at −20° C. until further analysis by LC-MS-TOF [33]. Characterization of enzymatic hydrolysis of isoprenoid pyrophosphate substrates by SaGGR and PfGGR was performed by quenching the enzyme reactions at 0, 2, 5, 10, 20, 40, and 60 minutes of incubation.
The separation of FPP, GGPP, and their reduced forms was conducted on a ZIC-pHILIC column (150 mm length, 2.1 mm internal diameter, and 5 μm particle size, Merck) using an Agilent Technologies 1200 Series Rapid Resolution high performance liquid chromatography (HPLC) system. Solvents for HPLC were purchased from HoneyWell and were of HPLC grade or higher. The mobile phases used for this analysis were A) 50 mM ammonium carbonate (Fluka, 30-33% NH3 basis) in water and B) acetonitrile. Analytes were eluted isocratically with a mobile phase composition of 62% B at a flow rate of 0.2 mL/min. The total run time of the method was 6.5 min. The temperature of the sample tray was maintained at 6° C. using an Agilent FC/ALS Thermostat. […]
(§5) Data acquisition and processing were performed by the Agilent Technologies MassHunter software package. Product formation was determined using extracted ion chromatogram abundances (±0.02 Da) for each molecule's [M-H]^− mass (Table 4). […] Relative reductase reactivity among GGRs was determined by measuring the fractional abundance of singly-, doubly-, or triply-reduced products to the total ion abundance present for intact and hydrolyzed moieties. Integrated areas for hydrolyzed monophosphate products were assumed to have the same ionization intensities as their pyrophosphate counterparts, as determined by their standard curves measured from 0-120 μM (FIG. 15).

[3] = In vitro GGR reduction of farnesyl pyrophosphate, products detected by LC-MS-TOF; design: key to FPP (C15) reduction: +: activity detected; ++: activity higher than for other GGRs
Method: […] […] Standard assays for alcohol reduction were incubated with 100 μM enzyme and 500 μM (E,E)-farnesol (Alfa-Aesar) or (E,E,E)-geranylgeraniol (Sigma-Aldrich); pyrophosphate assays were performed at 100 μM FPP or GGPP (Sigma-Aldrich). Alcohol-based assays were quenched by liquid extraction using a 3:1 (v:v) LC-grade ethyl acetate solution containing 100 μM dodecanol as a GC internal standard (Sigma-Aldrich). The organic layer was extracted and stored at −20° C. until analysis by GC-MS. Pyrophosphate assays were similarly quenched using LC-grade n-butanol (Sigma-Aldrich) 1:1 (v:v) and centrifuged at 15000×g for 2 minutes. The n-butanol layer was dried for 45 minutes at ambient temperature using a Labconco speedvac, reconstituted in 25 µL of a 62:38 (v:v) acetonitrile/50 mM ammonium carbonate solution, and stored at −20° C. until further analysis by LC-MS-TOF [33]. Characterization of enzymatic hydrolysis of isoprenoid pyrophosphate substrates by SaGGR and PfGGR was performed by quenching the enzyme reactions at 0, 2, 5, 10, 20, 40, and 60 minutes of incubation.
The separation of FPP, GGPP, and their reduced forms was conducted on a ZIC-pHILIC column (150 mm length, 2.1 mm internal diameter, and 5 μm particle size, Merck) using an Agilent Technologies 1200 Series Rapid Resolution high performance liquid chromatography (HPLC) system. Solvents for HPLC were purchased from HoneyWell and were of HPLC grade or higher. The mobile phases used for this analysis were A) 50 mM ammonium carbonate (Fluka, 30-33% NH3 basis) in water and B) acetonitrile. Analytes were eluted isocratically with a mobile phase composition of 62% B at a flow rate of 0.2 mL/min. The total run time of the method was 6.5 min. The temperature of the sample tray was maintained at 6° C. using an Agilent FC/ALS Thermostat. The column compartment was set to 40° C. A sample injection volume of 2 μL was used throughout.
The HPLC system was coupled to an Agilent Technologies 6210 time-of-flight mass spectrometer (LC-TOF-MS) by a ⅓post-column split. Contact between both instrument set-ups was established using a LAN card in order to trigger the MS into operation upon the initiation of a run cycle from the MassHunter workstation (Agilent Technologies). Electrospray ionization (ESI) was conducted in the negative ion mode and a capillary voltage of −3500 V was utilized. MS experiments were carried out in full scan mode, at 0.86 spectra/second for the detection of [M-H]^− ions. The instrument was tuned for a range of 50-1700 m/z. Prior to LC-TOF-MS analysis, the TOF-MS was calibrated via an ESI-L low concentration tuning mix (Agilent Technologies).
as §5

[4] = GGR reduction of geraniol; details: FIG. 1A legend, conditions not stated
[5] = GGR-mediated hydrolysis of prenyl pyrophosphates to monophosphates, time course by LC-MS-TOF; details: standard assay as a function of time, 0-60 minutes
Method: Validation of enzymatic substrate reduction was determined by incubating all assays in triplicate for each respective substrate and putative GGR for 1 hour at 37° C. All assays were performed at pH 7.4 in 100 mM sodium phosphate buffer containing 30-150 μM enzyme, 200 µM FAD (Sigma-Aldrich), and 65 mM sodium dithionite (Sigma-Aldrich). Standard assays for alcohol reduction were incubated with 100 μM enzyme and 500 μM (E,E)-farnesol (Alfa-Aesar) or (E,E,E)-geranylgeraniol (Sigma-Aldrich); pyrophosphate assays were performed at 100 μM FPP or GGPP (Sigma-Aldrich). […]
as §5

[6] = In vitro GGR reduction of geranylgeraniol, products analysed by GC-MS; design: key to Geranylgeraniol (C20) reduction: +: activity detected; ++: activity higher than for other GGRs
Method: as §4, §1, §2, §3

[7] = GGR reduction of geranyl pyrophosphate; design: key to GPP (C10) reduction: +: activity detected; ++: activity higher than for other GGRs
[8] = 1 hr, 37° C., pH 7.4, error in brackets
[9] = FIG. 1A legend, conditions not stated

B1: Sa-GGR: geranylgeranyl reductase from Sulfolobus acidocaldarius, InterPro M1I414, wild type (protein, listed as Sulfolobus acidocaldarius)
chain: MKELKYDVLIIGGGFAGSSAAYQLSRRGLKILLVDSKPWNRIGDKPCGDAVSKAHFDKLGMPYPKGEELENKINGIKLYSPDMQTVWTVNGEGFELNAPLYNQRVLKEAQDRGVEIWDLTTAMKPIFEDGYVKGAVLFNRRTNEELTVYSKVVVEATGYSRSFRSKLPPELPITEDLDDKDADVAYREVLLTKEDIEDHDYLRIFIDQETSPGGYWWYFPKGKNKVNVGLGIQGGMGYPSIHEYYKKYLDKYAPDVDKSKLLVKGGALVPTRRPLYTMAWNGIIVIGDSGFTVNPVHGGGKGSAMISGYCAAKAILSAFETGDFSASGLWDMNICYVNEYGAKQASLDIFRRFLQKLSNDDINYGMKKKIIKEEDLLEASEKGDLHLSVADKAMRVISGLGRPSLLFKLKAVAESMKKIKELYLNYPRSPSSLGSWRREVDNVLTEFNKSLS
- Farnesol (C15) reduction [1]: +
- Farnesol (C15)-full reduction [1]: +
- Formation of fully reduced farnesol ([1]; 50° C. and pH 5.5): generated a modest amount of H6-FOH
- Reduced products formed from farnesol ([1]; 1 hour 37° C., pH 7.4): H2- and H4-farnesol
- Reduction of FOH to H2-FOH or H4-FOH (in words) ([1]; 1 hr incubation under standard assay conditions): found to reduce FOH
- Specific activity of enzymatic GGR reduction on farnesol (FOH) [1, 8]: 8 (1) nmol terpene units reduced mg^−1 enzyme hr^−1
- Product of complete reduction of farnesol [1, 9]: H6-FOH
- GGPP (C20) reduction [2]: +
- Product of GGPP reduction [2, 9]: H6-GGPP
- FPP (C15) reduction [3]: +
- Product of FPP reduction [3, 9]: H4-FPP
- Preferential / final product of FPP reduction ([3]; SaGGR variants, pH 5.5, 50° C., kinetic time course): H4-FPP
- FPP consumption ([3]; after two hours of incubation at pH 5.5, 50° C.): fully consume FPP
- Reduction of FPP (in words) ([3]; standard assay conditions): could reduce FPP
- Product of complete reduction of geraniol [4]: H4-GOH
- Rate of first-order substrate hydrolysis, comparison [5]: occurs more quickly in SaGGR than for PfGGR
- Geranylgeraniol (C20) reduction [6]: +
- Reduced products formed from geranylgeraniol ([6]; 1 hour 37° C., pH 7.4): H2-, H4-, H6- and H8-geranylgeraniol
- Specific activity of enzymatic GGR reduction on geranylgeraniol (GGOH) [6, 8]: 50 (10) nmol terpene units reduced mg^−1 enzyme hr^−1
- Product of complete reduction of geranylgeraniol [6, 9]: H8-GGOH
- Enzymatic reduction of geranylgeraniol (in words) ([6]; standard assay, 1 hr, 37° C., pH 7.4): enzymatically reduce geranylgeraniol
- Specific activity toward GGOH ([6]; standard assay, stated as lower bound): at least 50±10 nmol terpenoids reduced per milligram of enzyme per hour
- GPP (C10) reduction [7]: +
- Product of GPP reduction [7, 9]: H2-GPP

B2: Ma1-GGR: geranylgeranyl reductase from Methanosarcina acetivorans #1, InterPro Q8TQQ6 (protein, UniProt Q8TQQ6 1-407, looked up)
Digeranylgeranylglycerophospho …: MKDIYDVLVIGAGPAGSIAAKTAAEKGLDVLLIEKRQEIGDPVRCAEGVNKEYLKKHVEIDNSWICADLKGSRIYSPNGTKVEMAEEISGGEVGYVLERKIFDRALAEHAAKAGAEVRVKTRATGLIIEDDFVKGARLMNLGKEYEVRAKIVIGADGVESKVGRWAGIDTSLKPIDIETCAQYLIAGADIDPEYCEFYIGNEIAPGGYVWIFPKGEGKANVGVGILGNRTGKFKPRPVDYLNNFVEKKFPNAKIVEMVFGGVPVSGSIEKTSVNGLMLVGDAARQSDPITGGGILNAMDAGKIAGEAAYEAISSGDVSLEKLEEVYEKRWRETTGHDIDMSLIVKNCFINLKDEDLDSLADSLKEVKFESMRLFDLLQALFKANKKLLWDLRVLFKDAAKEVMKNRT
- GGPP (C20) reduction [2]: +
- Reduction of GGPP (in words) ([2]; standard assay conditions): found to reduce GGPP

— patent US12365905B2, “Host cells and methods for reducing isoprenoid precursors and isoprenoids by geranylgeranyl reductase” (The Regents of the University of California, priority 2018, dated 2025)
